# Results taken from publication PMC3744807.
# B1: 15 bp duplex, biotinylated (dsDNA)
# DNA 1: ACTGCGTTTATGTAT
# DNA 2: ATACATAAACGCAGT
# Biological target: PARP-1 F1+F2 (UniProt P09874 1-214)
# Test: pull-down
# PARP-1 F1+F2, sequence (P09874 1-214): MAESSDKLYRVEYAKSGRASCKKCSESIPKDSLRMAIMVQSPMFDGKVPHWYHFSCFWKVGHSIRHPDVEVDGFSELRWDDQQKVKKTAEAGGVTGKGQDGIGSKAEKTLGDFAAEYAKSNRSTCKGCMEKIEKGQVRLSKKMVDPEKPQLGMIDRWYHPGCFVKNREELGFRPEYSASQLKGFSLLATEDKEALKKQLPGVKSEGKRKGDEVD
binder,measurement,value
B1,binding result,binds
